Source: PMC6547725

Target: KRAS (aa 1–170, Homo sapiens), wild type (Homo sapiens) (UniProt P01116)

- GTPase activity of KRAS wild type (GTP hydrolysis over time, HPLC) with 0.25 μM RAS-GAP; at 2.5 μM and 25 μM too fast to be resolved: 3.5 fold
Substance: RasGAP (aa 722–1056, Homo sapiens) (domain or fragment)
